# Target: C-CA (W184A/M185A) (HIV-1) (UniProt P04591)
# Experiment: NMR, slow exchange kinetics of binding
substance,measurement,value
NYAD-1 (peptide),Kd,< 10 µM
